Experimental findings from patent US20230295310A1 (ABCELLERA BIOLOGICS, published 2023) are described below.

The target of this assay is EGFR on HeLa cells (UniProt P00533 25-1210, limits assumed). Nature of the assay: cell-based or functional assay.

B1: GOMP001_bsAb_029 (bispecific antibody, human IgG1, kappa, L234A L235A)
heavy 1: QVQLVQSGAEVKKPGASVKVSCKASGYTFTSHWMHWVRKAPGQGLEWIGEFNPSNGRTNYNEEFKSKATMTVDTSTNTAYMELSSLRSEDTAVYYCASRDYDYDGRYFDYWGQGTLVTVSSASTKGPSVFPLAPSSKSTSGGTAALGCLVADYFPEPVTVSWNSGALTSGVHTFPAVLQSSGLYSLSSVVTVPSSSLGTQTYICNVNHKPSNTKVDEKVEPKSCDKTHTCPPCPAPEAAGGPSVFLFPPKPKDTLMISRTPEVTCVVVDVSHEDPEVKFNWYVDGVEVHNAKTKPREEQYNSTYRVVSVLTVLHQDWLNGKEYKCKVSNKALPAPIEKTISKAKGQPREPQVYTLPPSREEMTDNQVSLTCLVKGFYPSDIAVEWESNGQPENNYKTTPPVLMSDGSFFLASKLTVDKSRWQQGNVFSCSVMHEALHNHYTQKSLSLSPG
light 1: RIQMTQSPSSLSASVGDRVTITCSASSSVTYMYWYQDKPGKAPKLLIYDTSNLASGVPSRFSGSGSGTDYTFTISSLQPEDIATYYCQQWSSHIFTFGQGTKVEIKRTVAAPSVFIFPPSDKQLKSGTARVVCLLNNFYPREAKVQWKVDNALQSGNSQESVTEQDSKDSTYSLSSTLTLSKADYEKHKVYACEVTHQGLSSPVTKSFNRGEC
heavy 2: QVQLVQSGAEVKKPGASVKVSCKASGYTVTGYYMHWVRYAPGQGLEWMGWINPNSGGTNFAQRFQGRVTMTRDTSISTFYMDLNRLRSDDTAVYYCARGGAPVSYWFFDLWGRGTLVTVSSASTKGPSVFPLAPSSKSTSGGTAALGCLVKDYFPEPVTVSWNSGALTSGVHTFPAVLQSSGLYSLSSVVTVPSSSLGTQTYICNVNHKPSNTKVDKKVEPKSCDKTHTCPPCPAPEAAGGPSVFLFPPKPKDTLMISRTPEVTCVVVDVSHEDPEVKFNWYVDGVEVHNAKTKPREEQYNSTYRVVSVLTVLHQDWLNGKEYKCKVSNKALPAPIEKTISKAKGQPRRPRVYTLPPSREEMTKNQVSLVCLVKGFYPSDIAVEWESNGQPENNYKTTPPVLDSDGSFFLYSVLTVDKSRWQQGNVFSCSVMHEALHNHYTQKSLSLSPG
light 2: DIQMTQSPSSLSASVGDRVTITCRASQSISRYLNWYQRKPGDAPKVLIYNTSSLKSGVPSRFSGSGSGTDFTLTISSLQPEDFGTFYCQQSHSTPFTFGPGTKVDIKRTVAAPSVFIFPPSDEQLKSGTASVVCLLNNFYPREAKVQWKVDNALQSGNSQESVTEQDSKDSTYSLSSTLTLSKADYEKHKVYACEVTHQGLSSPVTKSFNRGEC
With B1, the Max killing % was 81.1% and the “X… HeLa EC50” value worked out at 0.136 nM.

B2: GOMP001_bsAb_030 (bispecific antibody, human IgG1, kappa, L234A L235A)
heavy 1: QVQLVQSGAEVKKPGASVKVSCKASGYTVTGYYMHWVRKAPGQGLEWMGWINPNSGGTNFAQEFQGRVTMTRDTSISTFYMDLNRLRSDDTAVYYCARGGAPVSYWFFDLWGRGTLVTVSSASTKGPSVFPLAPSSKSTSGGTAALGCLVADYFPEPVTVSWNSGALTSGVHTFPAVLQSSGLYSLSSVVTVPSSSLGTQTYICNVNHKPSNTKVDEKVEPKSCDKTHTCPPCPAPEAAGGPSVFLFPPKPKDTLMISRTPEVTCVVVDVSHEDPEVKFNWYVDGVEVHNAKTKPREEQYNSTYRVVSVLTVLHQDWLNGKEYKCKVSNKALPAPIEKTISKAKGQPREPQVYTLPPSREEMTDNQVSLTCLVKGFYPSDIAVEWESNGQPENNYKTTPPVLMSDGSFFLASKLTVDKSRWQQGNVFSCSVMHEALHNHYTQKSLSLSPG
light 1: RIQMTQSPSSLSASVGDRVTITCRASQSISRYLNWYQDKPGKAPKVLIYNTSSLKSGVPSRFSGSGSGTDFTLTISSLQPEDFGTFYCQQSHSTPFTFGPGTKVDIKRTVAAPSVFIFPPSDKQLKSGTARVVCLLNNFYPREAKVQWKVDNALQSGNSQESVTEQDSKDSTYSLSSTLTLSKADYEKHKVYACEVTHQGLSSPVTKSFNRGEC
heavy 2: QVQLVQSGAEVKKPGASVKVSCKASGYTFTSHWMHWVRYAPGQGLEWIGEFNPSNGRTNYNEKFKSKATMTVDTSTNTAYMELSSLRSEDTAVYYCASRDYDYDGRYFDYWGRGTLVTVSSASTKGPSVFPLAPSSKSTSGGTAALGCLVKDYFPEPVTVSWNSGALTSGVHTFPAVLQSSGLYSLSSVVTVPSSSLGTQTYICNVNHKPSNTKVDKKVEPKSCDKTHTCPPCPAPEAAGGPSVFLFPPKPKDTLMISRTPEVTCVVVDVSHEDPEVKFNWYVDGVEVHNAKTKPREEQYNSTYRVVSVLTVLHQDWLNGKEYKCKVSNKALPAPIEKTISKAKGQPRRPRVYTLPPSREEMTKNQVSLVCLVKGFYPSDIAVEWESNGQPENNYKTTPPVLDSDGSFFLYSVLTVDKSRWQQGNVFSCSVMHEALHNHYTQKSLSLSPG
light 2: DIQMTQSPSSLSASVGDRVTITCSASSSVTYMYWYQRKPGDAPKLLIYDTSNLASGVPSRFSGSGSGTDYTFTISSLQPEDIATYYCQQWSSHIFTFGQGTKVEIKRTVAAPSVFIFPPSDEQLKSGTASVVCLLNNFYPREAKVQWKVDNALQSGNSQESVTEQDSKDSTYSLSSTLTLSKADYEKHKVYACEVTHQGLSSPVTKSFNRGEC
Consider B2, for which the Max killing % stood at 92.6% and the “X… HeLa EC50” value turned out to be 0.0454 nM.

B3: GOMP001_bsAb_031 (bispecific antibody, human IgG1, kappa, L234A L235A)
heavy 1: QVQLVQSGAEVKKPGASVKVSCKASGYTFTSHWMHWVRKAPGQGLEWIGEFNPSNGRTNYNEEFKSKATMTVDTSTNTAYMELSSLRSEDTAVYYCASRDYDYDGRYFDYWGQGTLVTVSSASTKGPSVFPLAPSSKSTSGGTAALGCLVADYFPEPVTVSWNSGALTSGVHTFPAVLQSSGLYSLSSVVTVPSSSLGTQTYICNVNHKPSNTKVDEKVEPKSCDKTHTCPPCPAPEAAGGPSVFLFPPKPKDTLMISRTPEVTCVVVDVSHEDPEVKFNWYVDGVEVHNAKTKPREEQYNSTYRVVSVLTVLHQDWLNGKEYKCKVSNKALPAPIEKTISKAKGQPREPQVYTLPPSREEMTDNQVSLTCLVKGFYPSDIAVEWESNGQPENNYKTTPPVLMSDGSFFLASKLTVDKSRWQQGNVFSCSVMHEALHNHYTQKSLSLSPG
light 1: RIQMTQSPSSLSASVGDRVTITCSASSSVTYMYWYQDKPGKAPKLLIYDTSNLASGVPSRFSGSGSGTDYTFTISSLQPEDIATYYCQQWSSHIFTFGQGTKVEIKRTVAAPSVFIFPPSDKQLKSGTARVVCLLNNFYPREAKVQWKVDNALQSGNSQESVTEQDSKDSTYSLSSTLTLSKADYEKHKVYACEVTHQGLSSPVTKSFNRGEC
heavy 2: QGQLVESGGGVVQPGRSLRLSCAASGFTFRGFGMHWVRYAPGKGLEWVAIIYYDGKNKYYADRVKGRFTISRDNSKNTLYLQMNSLRAEDTAVYYCAKGGGYNWFDPWGRGTLVTVSSASTKGPSVFPLAPSSKSTSGGTAALGCLVKDYFPEPVTVSWNSGALTSGVHTFPAVLQSSGLYSLSSVVTVPSSSLGTQTYICNVNHKPSNTKVDKKVEPKSCDKTHTCPPCPAPEAAGGPSVFLFPPKPKDTLMISRTPEVTCVVVDVSHEDPEVKFNWYVDGVEVHNAKTKPREEQYNSTYRVVSVLTVLHQDWLNGKEYKCKVSNKALPAPIEKTISKAKGQPRRPRVYTLPPSREEMTKNQVSLVCLVKGFYPSDIAVEWESNGQPENNYKTTPPVLDSDGSFFLYSVLTVDKSRWQQGNVFSCSVMHEALHNHYTQKSLSLSPG
light 2: DIQMTQSPSSLSASVGDRVTITCRASQSISTYLNWYQRKPGDAPKLLIYSASSLQSGVPSRFSGSGSGTDFTLTISNLQPEDFAIYYCQRSYSPPFTFGPGTKLDIRRTVAAPSVFIFPPSDEQLKSGTASVVCLLNNFYPREAKVQWKVDNALQSGNSQESVTEQDSKDSTYSLSSTLTLSKADYEKHKVYACEVTHQGLSSPVTKSFNRGEC
B3 gave a Max killing % of 68.8%.

B4: GOMP001_bsAb_032 (bispecific antibody, human IgG1, kappa, L234A L235A)
heavy 1: QGQLVESGGGVVQPGRSLRLSCAASGFTFRGFGMHWVRKAPGKGLEWVAIIYYDGKNKYYADEVKGRFTISRDNSKNTLYLQMNSLRAEDTAVYYCAKGGGYNWFDPWGQGTLVTVSSASTKGPSVFPLAPSSKSTSGGTAALGCLVADYFPEPVTVSWNSGALTSGVHTFPAVLQSSGLYSLSSVVTVPSSSLGTQTYICNVNHKPSNTKVDEKVEPKSCDKTHTCPPCPAPEAAGGPSVFLFPPKPKDTLMISRTPEVTCVVVDVSHEDPEVKFNWYVDGVEVHNAKTKPREEQYNSTYRVVSVLTVLHQDWLNGKEYKCKVSNKALPAPIEKTISKAKGQPREPQVYTLPPSREEMTDNQVSLTCLVKGFYPSDIAVEWESNGQPENNYKTTPPVLMSDGSFFLASKLTVDKSRWQQGNVFSCSVMHEALHNHYTQKSLSLSPG
light 1: RIQMTQSPSSLSASVGDRVTITCRASQSISTYLNWYQDKPGKAPKLLIYSASSLQSGVPSRFSGSGSGTDFTLTISNLQPEDFAIYYCQRSYSPPFTFGPGTKLDIRRTVAAPSVFIFPPSDKQLKSGTARVVCLLNNFYPREAKVQWKVDNALQSGNSQESVTEQDSKDSTYSLSSTLTLSKADYEKHKVYACEVTHQGLSSPVTKSFNRGEC
heavy 2: QVQLVQSGAEVKKPGASVKVSCKASGYTFTSHWMHWVRYAPGQGLEWIGEFNPSNGRTNYNEKFKSKATMTVDTSTNTAYMELSSLRSEDTAVYYCASRDYDYDGRYFDYWGRGTLVTVSSASTKGPSVFPLAPSSKSTSGGTAALGCLVKDYFPEPVTVSWNSGALTSGVHTFPAVLQSSGLYSLSSVVTVPSSSLGTQTYICNVNHKPSNTKVDKKVEPKSCDKTHTCPPCPAPEAAGGPSVFLFPPKPKDTLMISRTPEVTCVVVDVSHEDPEVKFNWYVDGVEVHNAKTKPREEQYNSTYRVVSVLTVLHQDWLNGKEYKCKVSNKALPAPIEKTISKAKGQPRRPRVYTLPPSREEMTKNQVSLVCLVKGFYPSDIAVEWESNGQPENNYKTTPPVLDSDGSFFLYSVLTVDKSRWQQGNVFSCSVMHEALHNHYTQKSLSLSPG
light 2: DIQMTQSPSSLSASVGDRVTITCSASSSVTYMYWYQRKPGDAPKLLIYDTSNLASGVPSRFSGSGSGTDYTFTISSLQPEDIATYYCQQWSSHIFTFGQGTKVEIKRTVAAPSVFIFPPSDEQLKSGTASVVCLLNNFYPREAKVQWKVDNALQSGNSQESVTEQDSKDSTYSLSSTLTLSKADYEKHKVYACEVTHQGLSSPVTKSFNRGEC
For the molecule B4, the Max killing % was determined as 98.1% and the “X… HeLa EC50” value worked out at 0.061 nM.
